Test results taken from publication PMC5508133.

Molecular target: PfEMP1B (GFP-tagged minimal PfEMP1 construct) (P. falciparum)
Assay: co-IP; GFP-Trap on parasite lysates crosslinked with increasing concentrations of DSP; 1% Triton X-100, 150 mM NaCl, 50 mM Tris-HCl pH 7.4; western blot of eluates

B1: ring-exported protein-1 (REX1) (natural protein)
chain: MADYSSNEEETPKEEKKISKLEDMQSPFDYKRFFRKYTIFAPFILVYFTLMFFVNSTVQNGTMLLNSIKENANSKLPALLWNKIIGKGNDNEVNFEDKKMIEGNKSGNGEEHNKHKRRQVDNQEDDYDVDEYGNPKSGAPYKSEEEHAEQQNYYGEHHGDYEDKNEYHGKSNIENNKDFPEQGQKDEEKEKEAKKKAEEFEKRKQLHEEEKRKARETQQALHKKLQEQLQRLKEQEKKKVEHQKLIHKIKTQGDVDPAVQKVLNKYNQKEKDEEQQILKIRDLQVQLRHIQQRIQSLKSTNNGQPKTKDEYLQLKDLQKEYYDKEQDEQNMIEHLEHLQGEMQYLYEELQIVYDENQAKTAQAKDEQHELKPQAEKDASKLTTTYDQTKEVKPQAEKDASKLTTTYDQTKEVKPQAEKDASKLTTTYDQTKEVKPQAEKDALAKTENQNGELLPQAEKDASKLTTTYDQTKEVKPQAEKDALAKTENQNGELLPQAEKDASKLTTTYDQTKEVKPQAEKDALAKTENQNGELLPQAEKDASKLTTTYDQTKEVKPQAEKDALAKTENQSGELLTQAEKDALAKKESEAPKGSSTSDKNTTENQLNAEAQSEVKPQWQKDYWKSKNESQTETNNTWKKDSWKKKTEEQQNAEAQQEVKSPYEKYSYNKETKPQNDKYTLNKEVKPQNEKYTYNQKVKAENTESEKSLLESSVFN
  fold increase of pull-down in the presence of DSP: > 10 fold
